Molecular target: T1, Scpep1 (Mus musculus, UniProt Q920A5)
T1 construct: Scpep1 has a cleavable signal peptide, N-linked glycans, the Ser-Asp-His catalytic triad and is proteolytically processed from a 55 kDa precursor; made in house; host or cells: HT1080 cells (stably transfected), protein purified from the culture medium
T1 sequence (Q920A5 29-452): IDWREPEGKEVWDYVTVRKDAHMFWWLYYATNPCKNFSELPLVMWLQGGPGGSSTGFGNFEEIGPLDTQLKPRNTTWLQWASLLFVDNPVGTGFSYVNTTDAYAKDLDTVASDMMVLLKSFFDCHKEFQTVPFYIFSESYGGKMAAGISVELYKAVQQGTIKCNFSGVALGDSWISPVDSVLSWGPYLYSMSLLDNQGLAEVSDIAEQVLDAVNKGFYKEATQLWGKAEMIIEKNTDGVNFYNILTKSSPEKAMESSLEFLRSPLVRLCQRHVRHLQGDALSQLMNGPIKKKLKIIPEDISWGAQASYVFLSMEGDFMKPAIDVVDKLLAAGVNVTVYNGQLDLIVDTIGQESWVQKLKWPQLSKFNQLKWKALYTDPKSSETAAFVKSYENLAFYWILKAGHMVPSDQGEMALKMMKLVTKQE
Test: Carboxypeptidase activity of purified recombinant Scpep1-His6 against ET-1
Format: biochemical
Settings: pH 6.5 and 7.5, 50 µM ET-1
Source text: Figure 1 Scpep1 has carboxypeptidase activity against ET-1. A. Carboxypeptidase activity against ET-1 in homogenates of cultured AVSMC from WT, Scpep1 ^−/−, CathA^S190A and Scpep1 ^−/− /CathA^S190A mice as well as from the cells of Scpep1 ^−/− /CathA^S190A mice transiently transfected with pCMV-GFP and pCMV-Scpep1 plasmids. AVSMC after the passage 3 were transfected or not with Scpep1-RGS-His-Tag and pEGFP-C1 plasmids. Forty-eight hours after transfection confluent cells were harvested, homogenized and tested for carboxypeptidase activity using 50 µM ET-1 as a substrate. Data are expressed as means (±S.D.) of 3 independent experiments performed with different cell cultures. * p<0.05 and ** p<0.01 in two-tailed unpaired t-test. B. Carboxypeptidase activity against ET-1 in homogenates of cultured AVSMC from WT mice transfected with Scpep1 and CathA shRNA. […] The amino acid analysis of the reaction mixture determined that Scpep1 cleaves the C-terminal amino acid (Trp21) from ET-1 (not shown). […]
HT1080 cells stably expressing Scpep1-His6 [19] were cultured in DMEM with 0.05% FCS. […] Purity of Scpep1-His6 was monitored by silver staining and Western blotting.
Carboxypeptidase activity in cultured AVSMC was measured against 50 µM ET-1 as previously described using the method measuring the liberation rate of the C-terminal amino acid of the peptide. […]

Q: How did the “carboxypeptidase activity against ET-1 compared with pH 5.5” value turn out when endothelin-1 [ET-1] was run?
A: Its value is “Lower activity”.
